Experimental data published in publication PMC4507941 (PLoS ONE, 2015).
Entries after “also recorded” stand apart in the source; their conditions may differ. Read-outs that look alike come from different tables or passages of the source. Where no end group is shown, it is not given here.

What was measured:
[1] = test system: Insulin-degrading enzyme (IDE); details: cited from earlier work
Experimental: Table 1 Comparison of enzymatic characters of pitrilysin and IDE towards different substrates. | column: kcat (min^-1); KM (μM); kcat/KM (min^-1μM^-1)

pitrilysin [2] = molecular target: T1, pitrilysin (Homo sapiens, UniProt Q5JRX3); details: ref [23], cited from earlier work
T1 construct: made in house; host or cells: Sf9 cells
T1 sequence (Q5JRX3 29-1037): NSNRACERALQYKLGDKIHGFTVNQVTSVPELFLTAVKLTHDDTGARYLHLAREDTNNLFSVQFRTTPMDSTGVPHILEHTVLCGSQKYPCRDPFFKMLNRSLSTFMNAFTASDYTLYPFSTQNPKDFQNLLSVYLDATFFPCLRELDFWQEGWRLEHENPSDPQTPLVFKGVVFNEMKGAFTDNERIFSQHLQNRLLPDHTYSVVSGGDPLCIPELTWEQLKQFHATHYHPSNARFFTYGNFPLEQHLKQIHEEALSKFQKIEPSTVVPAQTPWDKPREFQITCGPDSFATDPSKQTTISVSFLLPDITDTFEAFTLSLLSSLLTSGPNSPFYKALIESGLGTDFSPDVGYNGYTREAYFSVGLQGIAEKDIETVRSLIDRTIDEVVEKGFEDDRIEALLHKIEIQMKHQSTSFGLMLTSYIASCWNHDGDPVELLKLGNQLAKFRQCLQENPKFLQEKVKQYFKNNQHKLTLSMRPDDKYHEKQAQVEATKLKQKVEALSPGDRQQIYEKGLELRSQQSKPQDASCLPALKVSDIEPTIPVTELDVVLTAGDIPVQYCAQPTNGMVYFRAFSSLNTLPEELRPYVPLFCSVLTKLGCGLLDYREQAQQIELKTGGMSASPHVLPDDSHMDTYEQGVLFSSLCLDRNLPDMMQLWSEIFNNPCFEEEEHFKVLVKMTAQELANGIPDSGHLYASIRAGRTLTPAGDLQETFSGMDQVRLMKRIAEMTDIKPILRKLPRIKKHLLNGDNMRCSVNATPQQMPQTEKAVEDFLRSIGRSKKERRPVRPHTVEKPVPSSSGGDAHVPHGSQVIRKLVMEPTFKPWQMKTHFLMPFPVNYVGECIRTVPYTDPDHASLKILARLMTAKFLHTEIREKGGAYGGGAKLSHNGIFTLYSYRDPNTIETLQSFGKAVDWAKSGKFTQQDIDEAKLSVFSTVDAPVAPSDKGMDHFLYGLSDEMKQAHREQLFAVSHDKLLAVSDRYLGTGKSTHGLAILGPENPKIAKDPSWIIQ
Experimental: (§1) Table 1 Comparison of enzymatic characters of pitrilysin and IDE towards different substrates. | column: kcat (min^-1); KM (μM); kcat/KM (min^-1μM^-1) || Having established IAPP as a substrate of pitrilysin, the kinetic properties of the reaction were determined. The rate of hIAPP hydrolysis was determined by measuring the disappearance of the substrate by HPLC, while k cat was determined based on the linear initial rate of hIAPP hydrolysis at a saturating hIAPP concentration (20 μM) using a molecular mass of 117 kDa for pitrilysin. The KM for hIAPP was determined by using it as an alternate substrate inhibitor of the hydrolysis of the fluorogenic peptide Abz-GGYRRGQ-EDDnp. The kcat and KM values of pitrilysin with hIAPP are 13.5 ± 0.1 m ...

pitrilysin [3] = test: 40 nM pitrilysin added to hIAPP preincubated at 37°C to induce oligomer formation; details: human, up to 1hr
pitrilysin [4] = test: pitrilysin (400 nM) added to hIAPP oligomers generated with rat cardiac myocytes or from HIP rat cardiac myocytes; details: human, 37°C, up to 1hr
recombinant pitrilysin = test: 40 nM pitrilysin in 50 mM Tris/HCl buffer (pH 7.4) containing 200 mM NaCl; details: human, 37°C, up to 60'
pitrilysin [5] = molecular target: T1, pitrilysin; test: In vitro cleavage of oligomeric hIAPP by pitrilysin (SDS-PAGE, Western blot); assay type: biochemical; details: hIAPP oligomers (12, 28, 36, 40 kDa and large oligomers), 40 or 400 nM pitrilysin, 37°C, 1 hr
Experimental: hIAPP was incubated at 37°C for 1 hr. with gentle shaking to induce hIAPP oligomerization. To produce low molecular weight oligomers, hIAPP oligomerization was initiated in saline solution at 37°C using 50 μM recombinant hIAPP and then incubated with myocytes for 2 hours at room temperature. Similarly cardiac myocytes from hIAPP expressing rats (HIP rats) contain amylin oligomers and thus both were used. Pitrilysin was added to oligomers and incubated for 1 hour at 37°C. The reaction was then subjected to SDS-PAGE and Western blotting with A11 antisera for large oligomer or with mouse anti-hIAPP for detection of monomers and small oligomers. Adult cardiac myocytes were isolated from wild-type Sprague-Dawley rats and from HIP rats as described.
Oligomers of hIAPP were generated from hIAPP incubated with rat cardiac myocytes and then incubated with pitrilysin (400 nM) at 37°C for 1 hr. Reactions were analyzed by Western blot analysis using mouse monoclonal anti-human amylin antibody E-5. b. […] Reactions were analyzed by Western blots using rabbit anti-IAPP that recognizes monomeric IAPP or rabbit anti-oligomer antibody A11. rIAPP (20 μM) was treated at the same condition as a negative control.

[6] = test system: Insulin-degrading enzyme (IDE); test: Cleavage of peptide substrates by insulin-degrading enzyme (IDE), determined as for pitrilysin; assay type: biochemical; details: mean ± SEM
Experimental: as §1, with “Having” for “Table 1 Comparison of enzymatic characters of pitrilysin and IDE towards different substrates. | column: kcat (min^-1); KM (μM); kcat/KM (min^-1μM^-1) || Having”, “min^-1 and 0.38 ± 0.01 μM, respectively (Table 1).” for “m ...”
We therefore compared the enzymatic properties of these two enzymes in terms of hIAPP degradation. The kcat and KM values for IDE with hIAPP were determined as above yielding values of 294 ± 0.4 min^-1 and 3.11 ± 0.20 μM, respectively. […] (Table 1). Thus relative to IDE, pitrilysin is a more specific IAPP degrading enzyme.

pitrilysin [7] = molecular target: T1, pitrilysin; test: Cleavage of peptide substrates by recombinant pitrilysin (HPLC substrate disappearance; KM as alternate substrate inhibitor of a fluorogenic peptide); assay type: biochemical; details: for Degradation of monomeric IAPP by pitrilysin: monomeric peptide 20 μM, HPLC
Experimental: Pitrilysin was produced in Sf9 cells (ATCC, Manassas, VA, USA) and purified as described.. The purity of recombinant pitrilysin is greater than 97% as judged from Coomassie blue stained SDS-PAGE gels using NIH ImageJ software (S1 Fig).
Monomeric hIAPP (20 μM) was incubated with 40 nM pitrilysin in 50 mM Tris/HCl buffer (pH 7.4) containing 200 mM NaCl at 37°C for various times and analyzed by reverse phase HPLC [22, 23]. hIAPP and its cleavage products were collected manually and identified by mass spectrometry.
as §1, with “Having” for “Table 1 Comparison of enzymatic characters of pitrilysin and IDE towards different substrates. | column: kcat (min^-1); KM (μM); kcat/KM (min^-1μM^-1) || Having”, “min^-1 and 0.38 ± 0.01 μM, respectively (Table 1).” for “m ...”

[8] = 20 μM hIAPP, 40 nM pitrilysin, 37°C, HPLC peaks identified by mass spectrometry
[9] = 40 nM pitrilysin, 50 mM Tris/HCl pH 7.4, 200 mM NaCl, 37°C

For Insulin, the Km ([1]; ref [44]) is listed as 0.13 ± 0.02 µM, the kcat ([1]; ref [44]) is listed as 0.00933 ± 0.00017 s⁻¹ and the kcat/KM ([1]; ref [44]) is listed as 4.3 min^-1μM^-1. The Km (pitrilysin [2]) was 54.5 ± 5.5 µM, the kcat (pitrilysin [2]) was 0.0033 ± 0 s⁻¹ and the kcat/KM (pitrilysin [2]) was 0.0037 min^-1μM^-1.
In the case of “KCNTATCATQRLANFLVHSSNNFGAILSSTNVGSNTY-NH2”, the not cleaved (pitrilysin [3]) is reported as “not able to degrade large hIAPP oligomers (1hr)”, the not cleaved (pitrilysin [4]) is reported as “inability of pitrilysin to reduce the amount of hIAPP oligomers of 12 kDa, 28 kDa, 36 kDa, or 40 kDa (1 hr)” and the cleaved bond (recombinant pitrilysin) is reported as “Phe15-Leu16, first_seen; also recorded: Gly24-Ala25, major; also recorded: Ala25-Ile26, major; also recorded: Arg11-Leu12, minor; also recorded: Leu12-Ala13, minor; also recorded: Ala13-Asn14, minor; also recorded: Asn14-Phe15, minor”.
For amyloid β peptide 1–40 [Aβ 40], the Km ([1]; ref [43]) is given as 0.87 ± 0.1 µM, the kcat ([1]; ref [43]) is given as 3.68 ± 0.183 s⁻¹ and the kcat/KM ([1]; ref [43]) is given as 250 min^-1μM^-1. The kcat/KM (pitrilysin [2]; listed as Aβ1–40) was 1.94 min^-1μM^-1, the Km (pitrilysin [2]) was 1.7 ± 0.1 µM and the kcat (pitrilysin [2]) was 0.055 ± 0.0017 s⁻¹.
In the case of “islet amyloid polypeptide (KCNTATCATQRLANFLVHSSNNFGAILSSTNVGSNTY; not fully specified (C-terminus); cysteine pairing not given here) [hIAPP, Human islet amyloid polypeptide (IAPP, amylin), from Anaspec; substrate of pitrilysin and IDE]”, the “Degradation of oligomeric hIAPP by pitrilysin” value (pitrilysin [5]) is reported as “not able to degrade; also recorded: does not degrade”, the kcat ([6]; determined as for pitrilysin (HPLC, saturating hIAPP)) is reported as 4.9 ± 0.0067 s⁻¹ and the Km ([6]; determined as for pitrilysin (alternate substrate inhibitor)) is reported as 3.11 ± 0.2 µM. The “Initial cleavage sites on hIAPP by pitrilysin” value (pitrilysin [7]; [8]) was “Phe^15-Leu^16, Gly^24-Ala^25 and Ala^25-Ile^26”, the “Secondary (subsequent) cleavage sites on hIAPP by pitrilysin” value (pitrilysin [7]; [8]) was “Arg^11-Leu^12, Leu^12-Ala^13, Ala^13-Asn^14 and Asn^14-Phe^15” and the “Degradation of monomeric IAPP by pitrilysin” value (pitrilysin [7]; [9]) was “hIAPP degradation is indeed catalyzed by pitrilysin”. The Km (pitrilysin [7]; pitrilysin, hIAPP as alternate substrate inhibitor of hydrolysis of fluorogenic peptide Abz-GGYRRGQ-EDDnp, mean ± SEM) was 0.38 ± 0.01 µM and the kcat (pitrilysin [7]; pitrilysin, linear initial rate of hIAPP hydrolysis at saturating 20 μM, substrate disappearance by HPLC, 50 mM Tris/HCl pH 7.4, 200 mM NaCl, 37°C, molecular mass 117 kDa, mean ± SEM) was 0.225 ± 0.0017 s⁻¹.
In the case of “rIAPP: rodent (rat) islet amyloid polypeptide, does not form oligomers”, the “Degradation of monomeric IAPP by pitrilysin” value (pitrilysin [7]; [9]) is reported as “degrades monomeric rat IAPP”.
